In patent publication US20180250395A1 (Janssen / Centocor, published 2018):
Substitutions are numbered along the chain they refer to.

B1: C47B213 (antibody, V domains shown)
VH: EVQLVQSGAEVKKPGESLKISCKGSGYSFDDSWIGWVRQMPGKGLEWMGIIYPGDSDTRYSPSFQGQVTISADKSISTAYLQWSSLKASDTAVYYCARVGRFASHQLDYWGQGTLVTVSS
VL: EIVLTQSPATLSLSPGERATLSCRASQSVNKALAWYQQKPGQAPRLLIYGASNRATGIPARFSGSGSGTDFTLTISSLEPEDFAVYYCQQGKGWPFTFGQGTKVEIK
notes: human IgG2sigma/kappa
B2: C47B214 (antibody, V domains shown)
VH: B1 VH
VL: B1 VL with K31N, A32R, Y49H, G50W, N53T, T56I, K92A, G93S
notes: human IgG2sigma/kappa
B3: C47B225 (antibody, V domains shown)
VH: B1 VH with S32Y
VL: B1 VL
notes: human IgG2sigma/kappa
B4: C47B229 (antibody, V domains shown)
VH: B1 VH with S32A
VL: B1 VL
notes: human IgG2sigma/kappa
B5: C47B224 (antibody, V domains shown)
VH: B1 VH with D30T, S32Y
VL: B1 VL with N30S, K31N, A32R, L33Q, Y49H, G50S, K92R, G93S
notes: human IgG2sigma/kappa
B6: C47B221 (antibody, V domains shown)
VH: B1 VH with D30T, S32Y
VL: B1 VL
notes: human IgG2sigma/kappa
B7: C47B218 (antibody, V domains shown)
VH: B1 VH with D30T
VL: B1 VL with K31N, A32R, Y49H, G50W, N53T, T56I, K92A, G93S
notes: human IgG2sigma/kappa
B8: C47B220 (antibody, V domains shown)
VH: B1 VH with D30T
VL: B1 VL with N30S, K31N, A32R, L33Q, Y49H, G50S, K92R, G93S
notes: human IgG2sigma/kappa
B9: C47B222 (human IgG2sigma) (antibody, V domains shown)
VH: B1 VH with D30T, S32Y
VL: B1 VL with K31N, A32R, Y49H, G50W, N53T, T56I, K92A, G93S
notes: human IgG2sigma/kappa; also called IgG2 Fc-silent C47B222
B10: C47B215 (antibody, V domains shown)
VH: B1 VH
VL: B1 VL with N30G, K31S, A32R, G50W, N53T, K92A, G93Y
notes: human IgG2sigma/kappa
B11: C47B233 (antibody, V domains shown)
VH: B1 VH with D30T, D31N, S32Y
VL: B1 VL with N30G, K31S, A32R, G50W, N53T, K92A, G93Y
notes: human IgG2sigma/kappa
B12: C47B231 (antibody, V domains shown)
VH: B1 VH with D30T, D31N, S32Y
VL: B1 VL
notes: human IgG2sigma/kappa
B13: C47B216 (antibody, V domains shown)
VH: B1 VH
VL: B1 VL with N30S, K31N, A32R, L33Q, Y49H, G50S, K92R, G93S
notes: human IgG2sigma/kappa
B14: C47B234 (antibody, V domains shown)
VH: B1 VH with D31N, S32Y
VL: B1 VL
notes: human IgG2sigma/kappa
B15: C47B227 (antibody, V domains shown)
VH: B1 VH with S32Y
VL: B1 VL with N30G, K31S, A32R, G50W, N53T, K92A, G93Y
notes: human IgG2sigma/kappa
B16: C47B217 (antibody, V domains shown)
VH: B1 VH with D30T
VL: B1 VL
notes: human IgG2sigma/kappa
B17: C47B230 (antibody, V domains shown)
VH: B1 VH with D30T, S32D
VL: B1 VL
notes: human IgG2sigma/kappa
B18: C47B235 (antibody, V domains shown)
VH: B1 VH with S32Y, G35S
VL: B1 VL
notes: human IgG2sigma/kappa
B19: C47B226 (antibody, V domains shown)
VH: B1 VH with S32Y
VL: B1 VL with K31N, A32R, Y49H, G50W, N53T, T56I, K92A, G93S
notes: human IgG2sigma/kappa; also called C27B226
B20: C47B223 (antibody, V domains shown)
VH: B1 VH with D30T, S32Y
VL: B1 VL with N30G, K31S, A32R, G50W, N53T, K92A, G93Y
notes: human IgG2sigma/kappa
B21: C47B219 (antibody, V domains shown)
VH: B1 VH with D30T
VL: B1 VL with N30G, K31S, A32R, G50W, N53T, K92A, G93Y
notes: human IgG2sigma/kappa
B22: C47B232 (antibody, V domains shown)
VH: B1 VH with D30T, D31N, S32Y
VL: B1 VL with K31N, A32R, Y49H, G50W, N53T, T56I, K92A, G93S
notes: human IgG2sigma/kappa
B23: C47B236 (antibody, V domains shown)
VH: B1 VH with D30K, S32D
VL: B1 VL
notes: human IgG2sigma/kappa
B24: C47B228 (antibody, V domains shown)
VH: B1 VH with S32Y
VL: B1 VL with N30S, K31N, A32R, L33Q, Y49H, G50S, K92R, G93S
notes: human IgG2sigma/kappa

Assays:
[1] = target: T1, recombinant human CD47 extracellular domain (ECD), His-tagged, dimer (human, UniProt Q08722 19-141); assay: MSD; CD47-ECD dimer binding to captured SIRP alpha-Fc, mAb 10 µg/ml
T1 construct: Dimeric fraction of the same His-tagged ECD; also called His-tagged CD47-ECD dimer protein

[2] = target: T2, Cyno CD47 ECD protein, His-tagged, monomer (cyno); assay: ProteOn SPR; cyno KD / human KD
T2 construct: extracellular domain; also called cynomolgus CD47

[3] = target: T3, recombinant human CD47 extracellular domain (ECD), His-tagged, monomer (human, UniProt Q08722 19-141); assay: ProteOn SPR; mAb captured, ECD monomer as analyte
T3 construct: C-terminal 6xHis tag; monomeric fraction from Superdex 200; also called human CD47 ECD; CD47-ECD monomer

[4] = target: T2, Cyno CD47 ECD protein, His-tagged, …; assay: ProteOn SPR; mAb captured, ECD monomer as analyte

Row | Binder | % SIRP alpha Inhibition [1] | KD Ratio Cyno/Human [2] | Kd [3] | Kd [4]
1 | B1 | 71.6% | 1.8 | 2.33 nM | 4.25 nM
2 | B2 | 99.7% | 0.6 | 2.3 nM | 1.4 nM
3 | B3 | 96.3% | 1.1 | 3.31 nM | 3.76 nM
4 | B4 | 16.1% | 3.9 | 2.15 nM | 8.32 nM
5 | B5 | 99.7% | 0.9 | 2.46 nM | 2.19 nM
6 | B6 | 95% | 0.9 | 5.21 nM | 4.5 nM
7 | B7 | 98.9% | 0.6 | 2.56 nM | 1.58 nM
8 | B8 | 98.6% | 0.9 | 4.3 nM | 3.74 nM
9 | B9 | 99.9% | 0.8 | 1.12 nM | 0.842 nM
10 | B10 | 99.6% | 0.7 | 2.05 nM | 1.44 nM
11 | B11 | 98.4% | 0.8 | 3.9 nM | 3.02 nM
12 | B12 | 83.7% | 1.1 | 11.3 nM | 12.3 nM
13 | B13 | 99.8% | 0.8 | 3.35 nM | 2.74 nM
14 | B14 | 86.6% | 1.8 | 4.49 nM | 7.93 nM
15 | B15 | 100% | 0.6 | 0.902 nM | 0.574 nM
16 | B16 | 83.1% | 0.7 | 7.67 nM | 5.56 nM
17 | B17 | 28.4% | 3.7 | 1.99 nM | 7.28 nM
18 | B18 | 99.9% | 1.3 | 2.35 nM | 3.06 nM
19 | B19 | 100% | 0.6 | 0.872 nM | 0.543 nM
20 | B20 | 100% | 0.7 | 1.14 nM | 0.807 nM
21 | B21 | 99.4% | 0.6 | 2.58 nM | 1.66 nM
22 | B22 | 99.6% | 0.9 | 2.8 nM | 2.42 nM
23 | B23 | 9.8% | 5 | 2.92 nM | 14.6 nM
24 | B24 | 99.3% | 0.9 | 2.69 nM | 2.53 nM
